Drawing on paper PMC4090420, this text covers fold decrease of binding against wild type b12 3–5 αIM, Kd and koff for 2 substances.

For orientation: Kd means the constant that tells how readily two partners part at equilibrium. A low value points to a tighter complex. The koff is the rate constant with which the complex falls apart. Read a low koff as slow dissociation.

In test [1] the target is b12 3–5 αIM L84A (human). Briefly: ELISA. (In general: An ELISA detects its analyte on a solid surface through an enzyme-linked reagent.)
Test [2] concerns the target b12 3–5 αIM F25A (human). Put plainly: ELISA.
Test [3] deals with b12 3–5 αIM H24A (human). Briefly: ELISA.
Test [4] deals with b12 3–5 αIM (Homo sapiens scaffold (engineered FNfn10)) (UniProt P02751). Put plainly: SPR. In general terms: SPR reads the build-up and loss of mass on a sensor chip optically.
Sequence of b12 3–5 αIM (Homo sapiens scaffold (engineered FNfn10)) (P02751 whole entry, looked up, change not shown): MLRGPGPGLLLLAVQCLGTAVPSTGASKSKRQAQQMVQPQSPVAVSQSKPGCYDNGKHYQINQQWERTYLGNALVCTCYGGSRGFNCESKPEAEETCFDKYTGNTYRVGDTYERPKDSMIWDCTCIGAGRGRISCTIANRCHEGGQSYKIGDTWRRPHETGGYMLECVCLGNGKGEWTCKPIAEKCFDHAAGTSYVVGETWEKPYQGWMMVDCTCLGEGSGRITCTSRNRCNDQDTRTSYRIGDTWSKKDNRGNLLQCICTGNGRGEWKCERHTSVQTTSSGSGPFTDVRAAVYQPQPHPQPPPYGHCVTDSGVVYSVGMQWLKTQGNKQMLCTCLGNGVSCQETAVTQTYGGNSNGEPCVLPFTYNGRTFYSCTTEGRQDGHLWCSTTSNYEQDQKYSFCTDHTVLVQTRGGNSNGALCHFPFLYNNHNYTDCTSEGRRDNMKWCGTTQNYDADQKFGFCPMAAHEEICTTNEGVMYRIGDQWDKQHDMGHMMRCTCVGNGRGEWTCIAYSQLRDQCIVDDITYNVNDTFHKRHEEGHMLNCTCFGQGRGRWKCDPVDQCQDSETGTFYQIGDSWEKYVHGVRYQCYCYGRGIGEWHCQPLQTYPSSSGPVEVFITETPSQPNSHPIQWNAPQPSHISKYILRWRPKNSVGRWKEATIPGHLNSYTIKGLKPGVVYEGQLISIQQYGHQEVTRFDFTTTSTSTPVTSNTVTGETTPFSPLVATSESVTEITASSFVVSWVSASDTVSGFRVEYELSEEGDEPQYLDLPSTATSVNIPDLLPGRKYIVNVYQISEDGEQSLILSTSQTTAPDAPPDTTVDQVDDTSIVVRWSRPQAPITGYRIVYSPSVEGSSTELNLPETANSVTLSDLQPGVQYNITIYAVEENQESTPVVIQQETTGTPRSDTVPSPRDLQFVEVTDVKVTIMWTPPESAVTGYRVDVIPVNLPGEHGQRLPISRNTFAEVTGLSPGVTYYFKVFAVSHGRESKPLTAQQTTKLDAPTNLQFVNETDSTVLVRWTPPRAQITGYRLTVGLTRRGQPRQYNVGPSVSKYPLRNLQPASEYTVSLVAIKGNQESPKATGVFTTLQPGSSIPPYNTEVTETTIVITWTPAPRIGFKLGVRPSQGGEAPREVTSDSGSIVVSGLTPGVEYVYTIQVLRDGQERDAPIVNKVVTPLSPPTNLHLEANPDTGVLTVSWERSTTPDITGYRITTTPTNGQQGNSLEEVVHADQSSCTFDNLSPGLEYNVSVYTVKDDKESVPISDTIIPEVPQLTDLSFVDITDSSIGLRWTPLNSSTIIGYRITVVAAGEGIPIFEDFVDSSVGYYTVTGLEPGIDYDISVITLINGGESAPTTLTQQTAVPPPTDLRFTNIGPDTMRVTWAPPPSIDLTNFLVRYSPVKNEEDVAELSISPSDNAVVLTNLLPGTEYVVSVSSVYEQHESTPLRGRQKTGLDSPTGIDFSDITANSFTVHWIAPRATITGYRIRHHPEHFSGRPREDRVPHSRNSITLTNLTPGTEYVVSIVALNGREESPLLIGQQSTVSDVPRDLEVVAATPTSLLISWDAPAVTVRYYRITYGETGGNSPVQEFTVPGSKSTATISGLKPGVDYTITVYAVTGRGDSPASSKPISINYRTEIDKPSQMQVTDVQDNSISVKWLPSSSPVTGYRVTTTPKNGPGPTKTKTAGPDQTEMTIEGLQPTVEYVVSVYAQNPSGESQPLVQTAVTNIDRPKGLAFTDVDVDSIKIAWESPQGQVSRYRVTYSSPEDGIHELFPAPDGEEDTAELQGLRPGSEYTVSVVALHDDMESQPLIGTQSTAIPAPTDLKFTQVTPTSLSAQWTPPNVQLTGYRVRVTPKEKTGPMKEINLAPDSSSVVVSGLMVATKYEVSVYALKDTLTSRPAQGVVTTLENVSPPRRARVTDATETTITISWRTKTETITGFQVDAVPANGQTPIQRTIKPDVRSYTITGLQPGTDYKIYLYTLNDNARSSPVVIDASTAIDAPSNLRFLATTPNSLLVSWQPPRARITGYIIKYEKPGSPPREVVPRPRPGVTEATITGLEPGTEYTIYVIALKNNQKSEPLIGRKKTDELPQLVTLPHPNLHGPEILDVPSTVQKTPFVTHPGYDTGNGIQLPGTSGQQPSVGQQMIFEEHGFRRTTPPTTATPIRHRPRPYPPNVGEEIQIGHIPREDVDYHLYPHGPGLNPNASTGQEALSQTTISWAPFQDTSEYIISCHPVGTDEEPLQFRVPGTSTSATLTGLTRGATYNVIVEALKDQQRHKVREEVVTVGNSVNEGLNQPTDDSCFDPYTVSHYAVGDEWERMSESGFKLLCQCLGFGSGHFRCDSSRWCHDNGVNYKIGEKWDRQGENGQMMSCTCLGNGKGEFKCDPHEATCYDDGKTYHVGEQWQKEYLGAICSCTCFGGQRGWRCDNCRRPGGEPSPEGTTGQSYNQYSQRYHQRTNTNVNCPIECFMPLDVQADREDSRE

For the substance b12 MAb (antibody), the fold decrease of binding against wild type b12 3–5 αIM in test [1] was 5 fold; in test [2], more than 10 fold; in test [3] it was more than 10 fold.
In test [4], b12 Fab registered a Kd of 43 nM and a dissociation rate constant (koff) of 0.0068 s⁻¹.
